{
  "source": "paper PMC11626941",
  "about": "“FBLN7 mediates vascular smooth muscle cell phenotype switching and vascular remodeling in hypertension” (Theranostics, 2024)",
  "proteins": {"B1": {"name": "Flag-tagged full-length mouse SDC4 (receptor, UniProt O35988 24-198, looked up)", "chain": "ESIRETEVIDPQDLLEGRYFSGALPDDEDAGGSDDFELSGSGDLDDTEEPRPFPEVIEPLVPLDNHIPENAQPGIRVPSEPKELEENEVIPKRAPSDVGDDMSNKVSMSSTAQGSNIFERTEVLAALIVGGVVGILFAVFLILLLVYRMKKKDEGSYDLGKKPIYKKAPTNEFYA", "notes": "Plasmids provided by GenePharma; Seen as monomer, dimer and tetramer bands on non-reducing blots; also called Flag-SDC4; Flag (SDC4); source: HEK293T, transfected (pcDNA 3.1), in lysate; not shown: Flag, C-terminal, kept"}},
  "target": "the molecule itself",
  "assay": "immunoblot with non-reducing loading buffer; HEK293T transfected with varying concentrations of SDC4 plasmids; SDS-PAGE, positions of SDC4 tetramer, dimer and monomer",
  "note": "Values joined by “and” are separate entries in the source; they are usually repeats but may differ in a detail not shown here. Equal entries are not always repeated.",
  "data": [
    {"protein": "B1", "values": [
      {"measurement": "stoichiometry N", "value": "2 and 4"}
    ]}
  ]
}
